Measurements from article PMC4070431.

Experiments:
[1] = target: non-selective somatostatin receptor (sst)
[2] = target: human natriuretic peptide receptor-B (NPR-B) (human) (UniProt P20594)
[3] = target: human natriuretic peptide receptor-A (NPR-A) (human) (UniProt P16066)
[4] = target: human natriuretic peptide receptor-A (NPR-A) (human) (UniProt P16066); experiment: radioligand binding
[5] = target: human natriuretic peptide receptor-C (NPR-C) (human) (UniProt P17342); experiment: radioligand binding
Chain of human natriuretic peptide receptor-C (NPR-C) (human) (P17342 27-541): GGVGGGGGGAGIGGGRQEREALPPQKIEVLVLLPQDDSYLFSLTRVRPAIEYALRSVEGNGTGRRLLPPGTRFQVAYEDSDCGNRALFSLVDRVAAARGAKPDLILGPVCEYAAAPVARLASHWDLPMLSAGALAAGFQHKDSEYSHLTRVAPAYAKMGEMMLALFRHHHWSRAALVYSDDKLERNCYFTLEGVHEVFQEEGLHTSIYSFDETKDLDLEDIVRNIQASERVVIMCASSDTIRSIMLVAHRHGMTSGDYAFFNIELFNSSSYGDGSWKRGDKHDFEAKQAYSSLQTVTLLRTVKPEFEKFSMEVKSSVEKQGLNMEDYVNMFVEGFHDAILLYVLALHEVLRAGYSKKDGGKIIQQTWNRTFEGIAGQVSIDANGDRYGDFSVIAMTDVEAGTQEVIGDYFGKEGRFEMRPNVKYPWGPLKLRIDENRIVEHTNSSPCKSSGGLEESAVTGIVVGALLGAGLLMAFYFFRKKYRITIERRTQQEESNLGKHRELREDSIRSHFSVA

Chain of human natriuretic peptide receptor-A (NPR-A) (human) (P16066 33-1061): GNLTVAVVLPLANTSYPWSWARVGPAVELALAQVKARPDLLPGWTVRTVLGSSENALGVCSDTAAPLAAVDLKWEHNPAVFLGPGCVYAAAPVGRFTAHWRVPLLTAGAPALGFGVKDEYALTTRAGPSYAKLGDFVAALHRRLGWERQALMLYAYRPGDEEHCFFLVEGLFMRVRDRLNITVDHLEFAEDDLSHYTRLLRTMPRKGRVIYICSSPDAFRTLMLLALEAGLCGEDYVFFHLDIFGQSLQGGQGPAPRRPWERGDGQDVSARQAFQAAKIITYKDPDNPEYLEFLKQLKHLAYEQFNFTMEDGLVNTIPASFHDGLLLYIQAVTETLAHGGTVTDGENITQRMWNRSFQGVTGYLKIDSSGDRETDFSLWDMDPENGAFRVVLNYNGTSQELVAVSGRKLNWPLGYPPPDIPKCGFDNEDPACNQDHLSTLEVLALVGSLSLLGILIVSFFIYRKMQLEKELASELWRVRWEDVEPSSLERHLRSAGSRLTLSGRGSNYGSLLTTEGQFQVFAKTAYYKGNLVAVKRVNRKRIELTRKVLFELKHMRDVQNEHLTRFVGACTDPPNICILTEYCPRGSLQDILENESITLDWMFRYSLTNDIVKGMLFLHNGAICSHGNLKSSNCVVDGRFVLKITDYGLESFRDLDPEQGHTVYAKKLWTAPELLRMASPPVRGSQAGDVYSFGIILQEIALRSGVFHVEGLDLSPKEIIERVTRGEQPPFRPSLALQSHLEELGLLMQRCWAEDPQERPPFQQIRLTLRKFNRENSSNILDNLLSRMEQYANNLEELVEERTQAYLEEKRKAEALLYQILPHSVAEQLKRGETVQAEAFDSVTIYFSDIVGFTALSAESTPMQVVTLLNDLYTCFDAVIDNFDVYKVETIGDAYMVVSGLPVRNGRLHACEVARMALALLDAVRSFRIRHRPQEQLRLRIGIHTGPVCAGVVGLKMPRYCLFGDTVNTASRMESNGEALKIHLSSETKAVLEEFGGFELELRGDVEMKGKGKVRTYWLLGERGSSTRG
Chain of human natriuretic peptide receptor-B (NPR-B) (human) (P20594 23-1047): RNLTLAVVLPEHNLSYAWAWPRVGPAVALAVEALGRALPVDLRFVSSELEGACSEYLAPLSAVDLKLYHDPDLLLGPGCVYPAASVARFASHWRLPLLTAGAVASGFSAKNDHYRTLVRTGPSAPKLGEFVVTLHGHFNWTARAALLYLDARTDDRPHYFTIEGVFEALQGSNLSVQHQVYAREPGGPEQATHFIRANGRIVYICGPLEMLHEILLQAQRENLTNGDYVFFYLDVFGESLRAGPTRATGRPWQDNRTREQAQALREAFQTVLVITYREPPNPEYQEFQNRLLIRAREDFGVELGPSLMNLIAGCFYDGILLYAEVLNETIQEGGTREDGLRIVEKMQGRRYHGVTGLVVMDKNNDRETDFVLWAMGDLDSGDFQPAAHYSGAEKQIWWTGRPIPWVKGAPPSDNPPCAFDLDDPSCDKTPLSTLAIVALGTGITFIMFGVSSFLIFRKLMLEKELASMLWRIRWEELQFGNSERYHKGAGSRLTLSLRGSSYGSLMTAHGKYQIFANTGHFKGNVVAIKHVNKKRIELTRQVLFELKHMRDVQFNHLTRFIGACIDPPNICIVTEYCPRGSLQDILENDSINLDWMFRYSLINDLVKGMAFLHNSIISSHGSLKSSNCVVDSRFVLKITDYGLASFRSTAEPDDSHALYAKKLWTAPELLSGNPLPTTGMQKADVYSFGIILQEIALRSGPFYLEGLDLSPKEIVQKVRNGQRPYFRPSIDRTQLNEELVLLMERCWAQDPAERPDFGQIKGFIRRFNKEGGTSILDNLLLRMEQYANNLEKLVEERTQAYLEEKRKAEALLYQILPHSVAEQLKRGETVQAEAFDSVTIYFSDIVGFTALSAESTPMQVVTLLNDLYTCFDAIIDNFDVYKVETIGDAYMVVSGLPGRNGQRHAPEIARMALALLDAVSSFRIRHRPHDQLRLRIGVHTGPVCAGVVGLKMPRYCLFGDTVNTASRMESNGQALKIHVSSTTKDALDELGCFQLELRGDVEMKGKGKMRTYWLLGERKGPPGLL

Row | Ki [1] | cGMP generation in HEK293 cells expressing the receptor (up to 10 µM), Emax [2] | cGMP generation in HEK293 cells expressing the receptor, EC50 [3] | cGMP generation in HEK293 cells expressing the receptor, Emax [3] | Ki [4] | Ki [5] | Substance
1 | 4200 nM |  |  |  |  |  | PL-3994 (Hept-cyclo(Cys-His-Phe-D-Ala-Gly-Arg-D-Nle-Asp-Arg-Ile-Ser-Cys)-Tyr-[Arg mimetic]-NH2) (peptide)
2 |  | 9 % hCNP | 2 nM | 96 % hANP | 3 nM | 0.7 nM | human brain natriuretic peptide (hBNP) (ligand)
